Measurements from patent US20150344570A1 (published 2015).

Molecular target: T1, FcγRIa (human, UniProt P12314 16-292)
T1 construct: extracellular domain; also called FcgRI; 1a
Test: SPR (Biacore); Ho Ab relative to HoCon Ab = 100
Protocol: Analysis of interaction between objective antibody and the FcγR was carried out using Biacore T100 (GE Healthcare). HBS-EP+ (GE Healthcare) was used as the running buffer, and the measurement temperature was set to 25° C. Chips produced by immobilizing the antigen peptide by the amine coupling method to a Series S Sencor Chip CM5 (GE Healthcare), or alternatively, chips produced by allowing preliminarily biotinylated antigen peptides to interact with and immobilize onto a Series S Sensor Chip SA (certified) (GE Healthcare) were used. Antibodies of interest were captured onto an antigen peptide-immobilized chip, and allowed to interact to each FcγR diluted with running buffer. To regenerate and repeatedly use the chip, the antibodies captured on the chip were washed off by reacting 10 mM glycine-HCl, pH 1.5.

T1 sequence (P12314 16-292): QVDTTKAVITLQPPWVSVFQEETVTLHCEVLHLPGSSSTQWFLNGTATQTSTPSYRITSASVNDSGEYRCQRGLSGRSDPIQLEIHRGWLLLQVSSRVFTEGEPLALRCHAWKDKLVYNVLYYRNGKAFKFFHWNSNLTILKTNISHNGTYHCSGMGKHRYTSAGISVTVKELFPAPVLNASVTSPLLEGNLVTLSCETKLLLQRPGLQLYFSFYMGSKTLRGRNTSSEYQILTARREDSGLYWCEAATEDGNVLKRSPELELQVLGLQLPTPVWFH

B1: GpH7-B3 variant E269_05P/GpL16-k0 (antibody, human IgG1, kappa)
heavy: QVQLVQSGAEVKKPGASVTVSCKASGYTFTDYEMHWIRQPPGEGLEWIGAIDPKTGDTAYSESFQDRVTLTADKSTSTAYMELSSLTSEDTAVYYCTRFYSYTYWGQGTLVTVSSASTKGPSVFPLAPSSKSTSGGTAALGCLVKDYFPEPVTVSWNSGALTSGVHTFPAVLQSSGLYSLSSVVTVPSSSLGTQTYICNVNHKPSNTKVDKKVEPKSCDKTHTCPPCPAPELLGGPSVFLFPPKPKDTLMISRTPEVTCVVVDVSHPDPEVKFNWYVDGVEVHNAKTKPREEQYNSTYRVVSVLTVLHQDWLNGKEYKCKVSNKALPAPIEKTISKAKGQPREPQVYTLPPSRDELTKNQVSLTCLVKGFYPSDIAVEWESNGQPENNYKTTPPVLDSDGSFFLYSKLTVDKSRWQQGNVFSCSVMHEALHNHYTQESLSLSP
light: DIVMTQSPLSLPVTPGEPASISCQASESLVHSNRNTYLHWYLQKPGQSPQLLIYKVSNRFSGVPDRFSGSGSGTDFTLKISRVEAEDVGVYYCSQNTHVPPTFGQGTKVEIERTVAAPSVFIFPPSDEQLKSGTASVVCLLNNFYPREAKVQWKVDNALQSGNSQESVTEQDSKDSTYSLSSTLTLSKADYEKHKVYACEVTHQGLSSPVTKSFNRGEC
notes: also called Ho Ab E269_05P
For B1, the Ho/Con_1a was 95.7 % of control.

B2: GpH7-B3 variant E333_04F/GpL16-k0 (antibody, human IgG1, kappa)
heavy: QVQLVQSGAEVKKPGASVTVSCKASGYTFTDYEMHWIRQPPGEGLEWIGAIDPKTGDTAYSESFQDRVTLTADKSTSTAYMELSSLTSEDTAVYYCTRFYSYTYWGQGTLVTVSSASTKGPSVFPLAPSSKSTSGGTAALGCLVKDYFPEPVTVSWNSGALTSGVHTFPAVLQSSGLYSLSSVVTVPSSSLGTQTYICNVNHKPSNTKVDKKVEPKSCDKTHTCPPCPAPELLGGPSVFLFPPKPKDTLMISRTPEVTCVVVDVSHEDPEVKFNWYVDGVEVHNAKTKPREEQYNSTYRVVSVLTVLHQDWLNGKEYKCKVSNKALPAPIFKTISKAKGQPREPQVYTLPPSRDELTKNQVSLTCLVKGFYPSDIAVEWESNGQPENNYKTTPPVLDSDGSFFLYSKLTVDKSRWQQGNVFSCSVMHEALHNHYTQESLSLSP
light: DIVMTQSPLSLPVTPGEPASISCQASESLVHSNRNTYLHWYLQKPGQSPQLLIYKVSNRFSGVPDRFSGSGSGTDFTLKISRVEAEDVGVYYCSQNTHVPPTFGQGTKVEIERTVAAPSVFIFPPSDEQLKSGTASVVCLLNNFYPREAKVQWKVDNALQSGNSQESVTEQDSKDSTYSLSSTLTLSKADYEKHKVYACEVTHQGLSSPVTKSFNRGEC
notes: also called Ho Ab E333_04F
In the case of B2, the Ho/Con_1a is reported as 98.4 % of control.

B3: GpH7-B3 variant E333_01G/GpL16-k0 (antibody, human IgG1, kappa)
heavy: not shown
light: DIVMTQSPLSLPVTPGEPASISCQASESLVHSNRNTYLHWYLQKPGQSPQLLIYKVSNRFSGVPDRFSGSGSGTDFTLKISRVEAEDVGVYYCSQNTHVPPTFGQGTKVEIERTVAAPSVFIFPPSDEQLKSGTASVVCLLNNFYPREAKVQWKVDNALQSGNSQESVTEQDSKDSTYSLSSTLTLSKADYEKHKVYACEVTHQGLSSPVTKSFNRGEC
notes: also called Ho Ab E333_01G
For B3, the Ho/Con_1a was 100 % of control.

B4: GpH7-B3 variant E333_03V/GpL16-k0 (antibody, human IgG1, kappa)
heavy: not shown
light: DIVMTQSPLSLPVTPGEPASISCQASESLVHSNRNTYLHWYLQKPGQSPQLLIYKVSNRFSGVPDRFSGSGSGTDFTLKISRVEAEDVGVYYCSQNTHVPPTFGQGTKVEIERTVAAPSVFIFPPSDEQLKSGTASVVCLLNNFYPREAKVQWKVDNALQSGNSQESVTEQDSKDSTYSLSSTLTLSKADYEKHKVYACEVTHQGLSSPVTKSFNRGEC
notes: also called Ho Ab E333_03V
B4 was tested, and the Ho/Con_1a was 98.4 % of control.

B5: GpH7-B3 variant E269_20W/GpL16-k0 (antibody, human IgG1, kappa)
heavy: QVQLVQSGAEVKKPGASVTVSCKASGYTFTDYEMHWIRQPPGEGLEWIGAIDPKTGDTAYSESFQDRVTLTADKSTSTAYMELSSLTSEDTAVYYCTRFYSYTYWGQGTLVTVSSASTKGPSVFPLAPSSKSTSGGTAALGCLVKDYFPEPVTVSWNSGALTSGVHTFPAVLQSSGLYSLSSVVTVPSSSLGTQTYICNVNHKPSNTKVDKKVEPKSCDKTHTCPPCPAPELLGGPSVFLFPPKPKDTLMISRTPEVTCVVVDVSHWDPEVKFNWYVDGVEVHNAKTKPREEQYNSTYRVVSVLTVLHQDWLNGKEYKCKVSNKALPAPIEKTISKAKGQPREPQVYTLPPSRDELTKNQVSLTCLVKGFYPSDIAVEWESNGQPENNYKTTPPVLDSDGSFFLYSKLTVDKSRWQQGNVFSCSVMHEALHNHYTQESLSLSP
light: DIVMTQSPLSLPVTPGEPASISCQASESLVHSNRNTYLHWYLQKPGQSPQLLIYKVSNRFSGVPDRFSGSGSGTDFTLKISRVEAEDVGVYYCSQNTHVPPTFGQGTKVEIERTVAAPSVFIFPPSDEQLKSGTASVVCLLNNFYPREAKVQWKVDNALQSGNSQESVTEQDSKDSTYSLSSTLTLSKADYEKHKVYACEVTHQGLSSPVTKSFNRGEC
notes: also called Ho Ab E269_20W
For B5, the Ho/Con_1a was 98.9 % of control.

B6: GpH7-B3 variant E269_14T/GpL16-k0 (antibody, human IgG1, kappa)
heavy: not shown
light: DIVMTQSPLSLPVTPGEPASISCQASESLVHSNRNTYLHWYLQKPGQSPQLLIYKVSNRFSGVPDRFSGSGSGTDFTLKISRVEAEDVGVYYCSQNTHVPPTFGQGTKVEIERTVAAPSVFIFPPSDEQLKSGTASVVCLLNNFYPREAKVQWKVDNALQSGNSQESVTEQDSKDSTYSLSSTLTLSKADYEKHKVYACEVTHQGLSSPVTKSFNRGEC
notes: also called Ho Ab E269_14T
With B6 the Ho/Con_1a was 96.2 % of control.

B7: GpH7-B3 variant E269_19Q/GpL16-k0 (antibody, human IgG1, kappa)
heavy: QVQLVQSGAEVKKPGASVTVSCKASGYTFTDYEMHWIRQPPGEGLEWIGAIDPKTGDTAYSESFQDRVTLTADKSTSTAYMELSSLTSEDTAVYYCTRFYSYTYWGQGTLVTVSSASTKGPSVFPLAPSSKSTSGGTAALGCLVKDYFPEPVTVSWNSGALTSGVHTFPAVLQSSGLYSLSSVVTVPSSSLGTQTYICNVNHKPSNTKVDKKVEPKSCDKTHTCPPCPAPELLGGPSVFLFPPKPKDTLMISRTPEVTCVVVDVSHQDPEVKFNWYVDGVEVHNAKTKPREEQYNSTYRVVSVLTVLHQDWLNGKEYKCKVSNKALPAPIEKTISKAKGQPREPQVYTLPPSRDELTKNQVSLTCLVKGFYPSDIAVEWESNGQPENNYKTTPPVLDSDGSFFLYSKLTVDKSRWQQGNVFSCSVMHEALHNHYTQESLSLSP
light: DIVMTQSPLSLPVTPGEPASISCQASESLVHSNRNTYLHWYLQKPGQSPQLLIYKVSNRFSGVPDRFSGSGSGTDFTLKISRVEAEDVGVYYCSQNTHVPPTFGQGTKVEIERTVAAPSVFIFPPSDEQLKSGTASVVCLLNNFYPREAKVQWKVDNALQSGNSQESVTEQDSKDSTYSLSSTLTLSKADYEKHKVYACEVTHQGLSSPVTKSFNRGEC
notes: also called Ho Ab E269_19Q
For B7, the Ho/Con_1a was 99.6 % of control.

B8: GpH7-B3 variant E269_08L/GpL16-k0 (antibody, human IgG1, kappa)
heavy: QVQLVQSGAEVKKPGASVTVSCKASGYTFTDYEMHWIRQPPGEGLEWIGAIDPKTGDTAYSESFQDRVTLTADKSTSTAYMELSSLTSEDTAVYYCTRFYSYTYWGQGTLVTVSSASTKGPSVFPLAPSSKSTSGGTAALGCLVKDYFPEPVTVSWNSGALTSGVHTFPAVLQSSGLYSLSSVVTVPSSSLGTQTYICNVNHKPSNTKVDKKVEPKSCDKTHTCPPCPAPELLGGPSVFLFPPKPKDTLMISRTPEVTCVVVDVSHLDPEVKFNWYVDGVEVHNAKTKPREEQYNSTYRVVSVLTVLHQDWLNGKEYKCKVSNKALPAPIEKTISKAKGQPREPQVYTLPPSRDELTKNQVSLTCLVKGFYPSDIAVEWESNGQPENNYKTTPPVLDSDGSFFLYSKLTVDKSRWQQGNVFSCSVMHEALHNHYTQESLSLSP
light: DIVMTQSPLSLPVTPGEPASISCQASESLVHSNRNTYLHWYLQKPGQSPQLLIYKVSNRFSGVPDRFSGSGSGTDFTLKISRVEAEDVGVYYCSQNTHVPPTFGQGTKVEIERTVAAPSVFIFPPSDEQLKSGTASVVCLLNNFYPREAKVQWKVDNALQSGNSQESVTEQDSKDSTYSLSSTLTLSKADYEKHKVYACEVTHQGLSSPVTKSFNRGEC
notes: also called Ho Ab E269_08L
For B8, the Ho/Con_1a was 101 % of control.

B9: GpH7-B3 variant E269_07I/GpL16-k0 (antibody, human IgG1, kappa)
heavy: not shown
light: DIVMTQSPLSLPVTPGEPASISCQASESLVHSNRNTYLHWYLQKPGQSPQLLIYKVSNRFSGVPDRFSGSGSGTDFTLKISRVEAEDVGVYYCSQNTHVPPTFGQGTKVEIERTVAAPSVFIFPPSDEQLKSGTASVVCLLNNFYPREAKVQWKVDNALQSGNSQESVTEQDSKDSTYSLSSTLTLSKADYEKHKVYACEVTHQGLSSPVTKSFNRGEC
notes: also called Ho Ab E269_07I
B9 was tested, and the Ho/Con_1a was 97.1 % of control.

B10: GpH7-B3 variant E269_13S/GpL16-k0 (antibody, human IgG1, kappa)
heavy: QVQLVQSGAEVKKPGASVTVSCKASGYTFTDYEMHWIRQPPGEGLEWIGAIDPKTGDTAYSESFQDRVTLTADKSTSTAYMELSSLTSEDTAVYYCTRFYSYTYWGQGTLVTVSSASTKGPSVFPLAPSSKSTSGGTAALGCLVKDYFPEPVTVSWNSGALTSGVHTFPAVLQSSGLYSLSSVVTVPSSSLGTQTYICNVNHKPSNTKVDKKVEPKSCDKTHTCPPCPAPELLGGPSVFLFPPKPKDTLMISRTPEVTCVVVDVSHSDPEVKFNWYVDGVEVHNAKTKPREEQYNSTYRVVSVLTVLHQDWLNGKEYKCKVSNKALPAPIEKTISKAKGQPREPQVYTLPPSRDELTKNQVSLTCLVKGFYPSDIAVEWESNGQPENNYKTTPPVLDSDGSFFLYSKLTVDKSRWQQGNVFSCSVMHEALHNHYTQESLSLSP
light: DIVMTQSPLSLPVTPGEPASISCQASESLVHSNRNTYLHWYLQKPGQSPQLLIYKVSNRFSGVPDRFSGSGSGTDFTLKISRVEAEDVGVYYCSQNTHVPPTFGQGTKVEIERTVAAPSVFIFPPSDEQLKSGTASVVCLLNNFYPREAKVQWKVDNALQSGNSQESVTEQDSKDSTYSLSSTLTLSKADYEKHKVYACEVTHQGLSSPVTKSFNRGEC
notes: also called Ho Ab E269_13S
For B10, the Ho/Con_1a was 95.9 % of control.

B11: GpH7-B3 variant E269_06M/GpL16-k0 (antibody, human IgG1, kappa)
heavy: not shown
light: DIVMTQSPLSLPVTPGEPASISCQASESLVHSNRNTYLHWYLQKPGQSPQLLIYKVSNRFSGVPDRFSGSGSGTDFTLKISRVEAEDVGVYYCSQNTHVPPTFGQGTKVEIERTVAAPSVFIFPPSDEQLKSGTASVVCLLNNFYPREAKVQWKVDNALQSGNSQESVTEQDSKDSTYSLSSTLTLSKADYEKHKVYACEVTHQGLSSPVTKSFNRGEC
notes: also called Ho Ab E269_06M
In the case of B11, the Ho/Con_1a is reported as 101 % of control.

B12: GpH7-B3 variant E269_09D/GpL16-k0 (antibody, human IgG1, kappa)
heavy: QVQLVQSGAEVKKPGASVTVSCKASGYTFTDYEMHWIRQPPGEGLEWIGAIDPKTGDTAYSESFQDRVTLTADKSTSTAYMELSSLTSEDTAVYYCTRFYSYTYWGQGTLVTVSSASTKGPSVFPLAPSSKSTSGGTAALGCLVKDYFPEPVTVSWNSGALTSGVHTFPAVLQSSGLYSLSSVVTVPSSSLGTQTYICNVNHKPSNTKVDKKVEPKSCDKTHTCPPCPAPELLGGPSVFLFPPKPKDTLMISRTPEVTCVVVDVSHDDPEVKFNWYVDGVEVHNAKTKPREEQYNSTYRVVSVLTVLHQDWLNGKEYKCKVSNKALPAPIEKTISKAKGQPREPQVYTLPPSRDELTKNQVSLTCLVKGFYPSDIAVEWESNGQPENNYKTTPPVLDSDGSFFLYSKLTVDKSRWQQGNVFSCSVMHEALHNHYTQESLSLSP
light: DIVMTQSPLSLPVTPGEPASISCQASESLVHSNRNTYLHWYLQKPGQSPQLLIYKVSNRFSGVPDRFSGSGSGTDFTLKISRVEAEDVGVYYCSQNTHVPPTFGQGTKVEIERTVAAPSVFIFPPSDEQLKSGTASVVCLLNNFYPREAKVQWKVDNALQSGNSQESVTEQDSKDSTYSLSSTLTLSKADYEKHKVYACEVTHQGLSSPVTKSFNRGEC
notes: also called Ho Ab E269_09D
For B12, the Ho/Con_1a was 106 % of control.

B13: GpH7-B3 variant E333_02A/GpL16-k0 (antibody, human IgG1, kappa)
heavy: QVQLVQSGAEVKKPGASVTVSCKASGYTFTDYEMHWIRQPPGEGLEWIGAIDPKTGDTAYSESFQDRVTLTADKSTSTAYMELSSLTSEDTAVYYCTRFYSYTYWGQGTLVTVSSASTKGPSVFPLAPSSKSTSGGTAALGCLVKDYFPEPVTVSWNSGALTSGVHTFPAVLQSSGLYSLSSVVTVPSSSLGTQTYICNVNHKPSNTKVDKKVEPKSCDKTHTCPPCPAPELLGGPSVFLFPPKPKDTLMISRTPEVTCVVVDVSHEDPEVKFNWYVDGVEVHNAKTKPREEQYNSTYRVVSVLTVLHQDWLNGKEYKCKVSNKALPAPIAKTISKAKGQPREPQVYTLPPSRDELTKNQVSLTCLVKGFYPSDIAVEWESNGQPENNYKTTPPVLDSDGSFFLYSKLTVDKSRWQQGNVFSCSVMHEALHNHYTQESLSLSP
light: DIVMTQSPLSLPVTPGEPASISCQASESLVHSNRNTYLHWYLQKPGQSPQLLIYKVSNRFSGVPDRFSGSGSGTDFTLKISRVEAEDVGVYYCSQNTHVPPTFGQGTKVEIERTVAAPSVFIFPPSDEQLKSGTASVVCLLNNFYPREAKVQWKVDNALQSGNSQESVTEQDSKDSTYSLSSTLTLSKADYEKHKVYACEVTHQGLSSPVTKSFNRGEC
notes: also called Ho Ab E333_02A
B13 was tested, and the Ho/Con_1a was 96.2 % of control.

B14: GpH7-B3 variant E269_18N/GpL16-k0 (antibody, human IgG1, kappa)
heavy: not shown
light: DIVMTQSPLSLPVTPGEPASISCQASESLVHSNRNTYLHWYLQKPGQSPQLLIYKVSNRFSGVPDRFSGSGSGTDFTLKISRVEAEDVGVYYCSQNTHVPPTFGQGTKVEIERTVAAPSVFIFPPSDEQLKSGTASVVCLLNNFYPREAKVQWKVDNALQSGNSQESVTEQDSKDSTYSLSSTLTLSKADYEKHKVYACEVTHQGLSSPVTKSFNRGEC
notes: also called Ho Ab E269_18N
B14 was tested, and the Ho/Con_1a was 92.7 % of control.

B15: GpH7-B3 variant E269_15Y/GpL16-k0 (antibody, human IgG1, kappa)
heavy: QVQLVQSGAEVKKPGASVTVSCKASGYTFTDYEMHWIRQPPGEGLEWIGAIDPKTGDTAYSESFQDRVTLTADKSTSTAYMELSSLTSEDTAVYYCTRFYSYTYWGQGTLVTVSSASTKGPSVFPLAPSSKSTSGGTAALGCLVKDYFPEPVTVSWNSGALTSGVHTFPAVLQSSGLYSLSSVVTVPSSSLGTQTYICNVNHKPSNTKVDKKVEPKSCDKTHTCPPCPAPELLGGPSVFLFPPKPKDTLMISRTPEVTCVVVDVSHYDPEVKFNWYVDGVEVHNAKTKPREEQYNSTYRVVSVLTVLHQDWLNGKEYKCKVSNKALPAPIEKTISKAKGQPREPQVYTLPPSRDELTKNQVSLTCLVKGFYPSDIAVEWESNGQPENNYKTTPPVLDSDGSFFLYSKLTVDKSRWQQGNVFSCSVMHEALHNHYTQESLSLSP
light: DIVMTQSPLSLPVTPGEPASISCQASESLVHSNRNTYLHWYLQKPGQSPQLLIYKVSNRFSGVPDRFSGSGSGTDFTLKISRVEAEDVGVYYCSQNTHVPPTFGQGTKVEIERTVAAPSVFIFPPSDEQLKSGTASVVCLLNNFYPREAKVQWKVDNALQSGNSQESVTEQDSKDSTYSLSSTLTLSKADYEKHKVYACEVTHQGLSSPVTKSFNRGEC
notes: also called Ho Ab E269_15Y
In the case of B15, the Ho/Con_1a is reported as 100 % of control.

B16: GpH7-B3 variant E269_16H/GpL16-k0 (antibody, human IgG1, kappa)
heavy: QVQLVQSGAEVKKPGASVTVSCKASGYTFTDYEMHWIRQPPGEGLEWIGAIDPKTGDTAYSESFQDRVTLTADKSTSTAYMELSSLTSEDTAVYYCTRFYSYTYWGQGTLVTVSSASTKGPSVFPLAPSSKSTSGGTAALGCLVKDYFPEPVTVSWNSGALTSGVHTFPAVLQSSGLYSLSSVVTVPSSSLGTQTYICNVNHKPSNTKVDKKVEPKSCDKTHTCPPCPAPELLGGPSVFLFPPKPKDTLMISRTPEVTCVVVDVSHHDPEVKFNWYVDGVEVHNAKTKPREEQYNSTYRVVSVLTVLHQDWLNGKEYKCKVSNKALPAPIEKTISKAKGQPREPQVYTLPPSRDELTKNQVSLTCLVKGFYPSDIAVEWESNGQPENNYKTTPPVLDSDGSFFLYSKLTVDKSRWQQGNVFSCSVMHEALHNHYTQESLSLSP
light: DIVMTQSPLSLPVTPGEPASISCQASESLVHSNRNTYLHWYLQKPGQSPQLLIYKVSNRFSGVPDRFSGSGSGTDFTLKISRVEAEDVGVYYCSQNTHVPPTFGQGTKVEIERTVAAPSVFIFPPSDEQLKSGTASVVCLLNNFYPREAKVQWKVDNALQSGNSQESVTEQDSKDSTYSLSSTLTLSKADYEKHKVYACEVTHQGLSSPVTKSFNRGEC
notes: also called Ho Ab E269_16H
For B16, the Ho/Con_1a was 98.4 % of control.
